US20100285022A1

Target: F protein on live RSV virus (strain not stated) (respiratory syncytial virus)
Assay: cell-based or functional assay

IC50, plaque neutralization assay on HEp2 cells with rabbit complement: 0.3 µg/mL
affinity corresponding to the IC50 of the plaque neutralization assay: 2 nM
Substance: Synagis® (palivizumab) (antibody)
